Experimental data reported in patent US20180155451A1 (published 2018).

B1: GpH7-A5/GpH7-B3 variant Q295_02A/GpL16-k0 (He Ab) (antibody, human IgG1, kappa)
heavy 1: not shown
heavy 2: not shown
light: DIVMTQSPLSLPVTPGEPASISCQASESLVHSNRNTYLHWYLQKPGQSPQLLIYKVSNRFSGVPDRFSGSGSGTDFTLKISRVEAEDVGVYYCSQNTHVPPTFGQGTKVEIERTVAAPSVFIFPPSDEQLKSGTASVVCLLNNFYPREAKVQWKVDNALQSGNSQESVTEQDSKDSTYSLSSTLTLSKADYEKHKVYACEVTHQGLSSPVTKSFNRGEC
notes: He Ab: alteration only in the GpH7-B3 chain
B2: GpH7-A5/GpH7-B3 variant I336_03V/GpL16-k0 (He Ab) (antibody, human IgG1, kappa)
heavy 1: not shown
heavy 2: not shown
light: B1 light
notes: as for B1
B3: GpH7-A5/GpH7-B3 variant E333_13S/GpL16-k0 (He Ab) (antibody, human IgG1, kappa)
heavy 1: not shown
heavy 2: not shown
light: B1 light
notes: as for B1
B4: GpH7-A5/GpH7-B3 variant P271_03V/GpL16-k0 (He Ab) (antibody, human IgG1, kappa)
heavy 1: not shown
heavy 2: not shown
light: B1 light
notes: as for B1
B5: GpH7-A5/GpH7-B3 variant A330_08L/GpL16-k0 (He Ab) (antibody, human IgG1, kappa)
heavy 1: not shown
heavy 2: not shown
light: B1 light
notes: as for B1
B6: GpH7-A5/GpH7-B3 variant E333_01G/GpL16-k0 (He Ab) (antibody, human IgG1, kappa)
heavy 1: not shown
heavy 2: not shown
light: B1 light
notes: as for B1
B7: GpH7-A5/GpH7-B3 variant P271_04F/GpL16-k0 (He Ab) (antibody, human IgG1, kappa)
heavy 1: not shown
heavy 2: not shown
light: B1 light
notes: as for B1
B8: GpH7-A5/GpH7-B3 variant K334_10E/GpL16-k0 (He Ab) (antibody, human IgG1, kappa)
heavy 1: not shown
heavy 2: not shown
light: B1 light
notes: as for B1
B9: GpH7-A5/GpH7-B3 variant Q295_03V/GpL16-k0 (He Ab) (antibody, human IgG1, kappa)
heavy 1: not shown
heavy 2: not shown
light: B1 light
notes: as for B1
B10: GpH7-A5/GpH7-B3 variant I336_18N/GpL16-k0 (He Ab) (antibody, human IgG1, kappa)
heavy 1: not shown
heavy 2: not shown
light: B1 light
notes: as for B1
B11: GpH7-A5/GpH7-B3 variant E269_15Y/GpL16-k0 (He Ab) (antibody, human IgG1, kappa)
heavy 1: not shown
heavy 2: not shown
light: B1 light
notes: as for B1
B12: GpH7-A5/GpH7-B3 variant P271_11K/GpL16-k0 (He Ab) (antibody, human IgG1, kappa)
heavy 1: not shown
heavy 2: not shown
light: B1 light
notes: as for B1
B13: GpH7-A5/GpH7-B3 variant I336_04F/GpL16-k0 (He Ab) (antibody, human IgG1, kappa)
heavy 1: not shown
heavy 2: not shown
light: B1 light
notes: as for B1
B14: GpH7-A5/GpH7-B3 variant P271_12R/GpL16-k0 (He Ab) (antibody, human IgG1, kappa)
heavy 1: not shown
heavy 2: not shown
light: B1 light
notes: as for B1
B15: GpH7-A5/GpH7-B3 variant P271_06M/GpL16-k0 (He Ab) (antibody, human IgG1, kappa)
heavy 1: not shown
heavy 2: not shown
light: B1 light
notes: as for B1
B16: GpH7-A5/GpH7-B3 variant E269_04F/GpL16-k0 (He Ab) (antibody, human IgG1, kappa)
heavy 1: not shown
heavy 2: not shown
light: B1 light
notes: as for B1
B17: GpH7-A5/GpH7-B3 variant K326_16H/GpL16-k0 (He Ab) (antibody, human IgG1, kappa)
heavy 1: not shown
heavy 2: not shown
light: B1 light
notes: as for B1
B18: GpH7-A5/GpH7-B3 variant A330_09D/GpL16-k0 (He Ab) (antibody, human IgG1, kappa)
heavy 1: not shown
heavy 2: not shown
light: B1 light
notes: as for B1
B19: GpH7-A5/GpH7-B3 variant P271_20W/GpL16-k0 (He Ab) (antibody, human IgG1, kappa)
heavy 1: not shown
heavy 2: not shown
light: B1 light
notes: as for B1
B20: GpH7-A5/GpH7-B3 variant K326_15Y/GpL16-k0 (He Ab) (antibody, human IgG1, kappa)
heavy 1: not shown
heavy 2: not shown
light: B1 light
notes: as for B1
B21: GpH7-A5/GpH7-B3 variant A327_09D/GpL16-k0 (He Ab) (antibody, human IgG1, kappa)
heavy 1: not shown
heavy 2: not shown
light: B1 light
notes: as for B1
B22: GpH7-A5/GpH7-B3 variant P271_07I/GpL16-k0 (He Ab) (antibody, human IgG1, kappa)
heavy 1: not shown
heavy 2: not shown
light: B1 light
notes: as for B1
B23: GpH7-A5/GpH7-B3 variant I336_02A/GpL16-k0 (He Ab) (antibody, human IgG1, kappa)
heavy 1: not shown
heavy 2: not shown
light: B1 light
notes: as for B1
B24: GpH7-A5/GpH7-B3 variant E269_06M/GpL16-k0 (He Ab) (antibody, human IgG1, kappa)
heavy 1: not shown
heavy 2: not shown
light: B1 light
notes: as for B1
B25: GpH7-A5/GpH7-B3 variant I336_10E/GpL16-k0 (He Ab) (antibody, human IgG1, kappa)
heavy 1: not shown
heavy 2: not shown
light: B1 light
notes: as for B1
B26: GpH7-A5/GpH7-B3 variant I336_06M/GpL16-k0 (He Ab) (antibody, human IgG1, kappa)
heavy 1: not shown
heavy 2: not shown
light: B1 light
notes: as for B1
B27: GpH7-A5/GpH7-B3 variant A330_14T/GpL16-k0 (He Ab) (antibody, human IgG1, kappa)
heavy 1: not shown
heavy 2: not shown
light: B1 light
notes: as for B1
B28: GpH7-A5/GpH7-B3 variant K326_14T/GpL16-k0 (He Ab) (antibody, human IgG1, kappa)
heavy 1: not shown
heavy 2: not shown
light: B1 light
notes: as for B1
B29: GpH7-A5/GpH7-B3 variant P271_13S/GpL16-k0 (He Ab) (antibody, human IgG1, kappa)
heavy 1: not shown
heavy 2: not shown
light: B1 light
notes: as for B1
B30: GpH7-A5/GpH7-B3 variant G236_20W/GpL16-k0 (He Ab) (antibody, human IgG1, kappa)
heavy 1: not shown
heavy 2: not shown
light: B1 light
notes: He Ab: alteration only in the GpH7-B3 chain; also called GpH7-A5/GpH7-B3-03-20W/GpL16-k0

Target: T1, FcγRIa extracellular domain with C-terminal His tag (human, UniProt P12314 16-292)
T1 construct: extracellular domain; Expressed in FreeStyle293 cells; analyte in Biacore; also called FcgRI; FcgRIa
T1 sequence (P12314 16-292): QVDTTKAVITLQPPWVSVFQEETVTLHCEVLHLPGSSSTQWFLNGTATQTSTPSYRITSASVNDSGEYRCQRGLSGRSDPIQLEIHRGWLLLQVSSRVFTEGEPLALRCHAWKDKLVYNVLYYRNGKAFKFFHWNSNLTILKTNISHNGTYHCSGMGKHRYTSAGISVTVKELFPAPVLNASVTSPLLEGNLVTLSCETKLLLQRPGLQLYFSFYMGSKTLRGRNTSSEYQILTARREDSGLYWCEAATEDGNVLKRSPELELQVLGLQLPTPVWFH
Assay: SPR Biacore, antibody captured, FcγRIa analyte; vs GpH7-A5/GpH7-B3/GpL16-k0 = 100

He/Con_1a | Binder
104 relative (control = 100) | B1
105 relative (control = 100) | B2
103 relative (control = 100) | B3
102 relative (control = 100) | B4
107 relative (control = 100) | B5
103 relative (control = 100) | B6
102 relative (control = 100) | B7
110 relative (control = 100) | B8
104 relative (control = 100) | B9
108 relative (control = 100) | B10
106 relative (control = 100) | B11
103 relative (control = 100) | B12
106 relative (control = 100) | B13
102 relative (control = 100) | B14
102 relative (control = 100) | B15
103 relative (control = 100) | B16
103 relative (control = 100) | B17
109 relative (control = 100) | B18
103 relative (control = 100) | B19
106 relative (control = 100) | B20
103 relative (control = 100) | B21
102 relative (control = 100) | B22
106 relative (control = 100) | B23
104 relative (control = 100) | B24
108 relative (control = 100) | B25
108 relative (control = 100) | B26
105 relative (control = 100) | B27
104 relative (control = 100) | B28
102 relative (control = 100) | B29
105 relative (control = 100) | B30
